# Key:
# [1] = biological target: PCV2-His-ΔN45 capsid protein (porcine circovirus type 2) (UniProt O56129); experiment: crystal structure; PCV2-His-ΔN45 at ~12 mg/ml, crystals from 2 M ammonium sulfate, 0.1 M citric acid pH 4.6; one icosahedral particle per asymmetric unit; 2.8 Å
# [2] = biological target: full-length PCV2 capsid protein (porcine circovirus type 2) (UniProt O56129); experiment: cryo-EM structure; in vitro assembled full-length PCV2 VLP, 300 kV Titan Krios, icosahedral reconstruction at 4.12 Å
Substance,stoichiometry N [1],stoichiometry N [2]
PCV2-His-ΔN45 capsid protein (from UniProt O56129 45-233) (domain or fragment),60 subunits,
full-length PCV2 capsid protein (from UniProt O56129 1-233) (natural protein),,60 subunits

# — article PMC6415871
